Experimental findings from the DeepSol protein solubility set are described below.

This series can be described thus: soluble on expression in E. coli; label from the status in PepcDB or PDB records.
Regarding “MGNFYSLGKKEPVIRLLQITDCHLFSSESECLLGINTTETFQAVIEHIHQTDFAYDAVLATGDLIQDHNPEAYHRFAEMAKQFVKPLFWLEGNHDKQPQMSLYLGKHPHIQPEKQLLAGEKWQILLLNSQVAGAPSGYLSAGQLAWLNSKLAKHLDRYALVVLHHNILPTNSAWLDQHCLKNSEQLAKVLKSYRNVKAILHGHIHQEVDRVWQGYRVLATPSTCIQFKPNCRDFTLDMLPQGWREISLLEDGSIETTVKRLASNQFLPDFQSKGY”, the “soluble on expression in E. coli” value was “not soluble”.
For the sequence “MGNGGILCALKTDSCSMLVISNNVHLPDAEIELTAIRAQGAGGQNVNKVSSAVHLRFDIPASSLPPFYKERLLALRDSRITSDGVIILKAQQYRTQEQNRADALERLTELILSAIKVEKKRRPTKPTLGSKKRRLETKAKRGSIKAGRGKVDFLEHHHHHH”, the “soluble on expression in E. coli” value is “soluble”.
With “MGNINSLFTTNPSEILPVEVYLNDLSCDAVENLGSTRFMKVARGRTHEGVFVYKVFVRQDLASLDPFPQRIIDIRKALMKSPNCCPIKKVLVKQKYAVMVRAFQKHTLFDRLSTRPFVVEAEKMWYIFLLFKALSQCETAGVCHGDLKSQNVLISSTNWLQITDFAPFKPCFLTHDNPSSFTFFFDTSRRQSCYIAPERFISATEYDEKLRDGQDEWLFGSLTPKMDMFSAGCIVFELLCDRPPFTYSSLCEYRSMNDADAGNMLLRLIQDVPAPYRPLLRLLLNRDPSFRISANAVLTGAALKFPHILESFLFKYLDRFRPLYGTSTSSDPSTDDFSQALEFSYLEPDDVITKLKREKQLWWARLSENDESKSFAFLFVSLITANLRALRTIQGKTDAIRMLVELSTISDSSVAIDRILPYFVHLWMDPETQVRATAVTAVAELLAPIQPKTYEESLVFVDYLFPHLNSMSNDSIDSPQHVLFAIATSLGQFADTAYRFYMAGREIRQATMYDDEVSTAGEQQQNDDAGALLHGVSAMFSALCSKEPMVKRCLVESKSLILLYHFFIKIGNDDTLLRFLCTFLNAKTEWRLRAAFFDSLPVCVQKRSEGMVPLLQLGLQDGEEHVVVRALGCIHILIKNENLDKMSVKKLLDDVLPFLVHPNDWIRSTVCDILLAIDCQWHNAEVHVKLIPLVSPFVEESKRGVLTLKSKPVLMSQLVDPIPRTTFNQIIDQSLENTKQITMLLEIHFQTGKPFEAGAGWFNTIFPKIKTETKAGVVEHNDLKAALEARKRLTASVYSFRKLFERMAETRNTAGMEIYLTRQLGTIDLSSIAHSRVRRKEFTYGGDESAMSSNSKHLTAINIPNHSTERRDTLLLAGEVVIEEERTVTNTPAPYSPVKNTTFDNQVNEMLAHLNELHMRNVNCRPKRPLAASASHPVLSASPSAGSLGSSSNNNVKGIIITHLHEHSGKITKLCANRESDLFLSGSTDGTVKVWKTRSVLGEGYGSARSEDTWIPTETSREKVNSVGWNDQFACSATNDGFVRWADVGQGSARVATQVRIPDAEGPPVYLHCNGPMAIVRTHHGVLYGIDLRVGASEGPLKRHDIWRKKFQESHGLVTSSAIDPWQQSWMVIGNNSGQKNLVLYDLRFKEEVLRWESPHQNTQPNRVWANPVSRQECPEVFVGFSMHGEISTYELSAQPLRKRVFWTGGAPILSYSAASNDARKQDSLATRSLCVCEKTGVVYTGDTRGAIRKWNPTRAVGCEIISAPPKGRTAYRTIFEENDTSTAPSGASTDPFVIYERTVLDTEAKENQKVVPLDSKPSTYHRTPITDMMLLNSELLVSSGYDGVIKIWK”, the “soluble on expression in E. coli” value is given as “not soluble”.
Next, “MGNRIPDEIVDQVQKSADIVEVIGDYVQLKKQGRNYFGLCPFHGESTPSFSVSPDKQIFHCFGCGAGGNVFSFLRQMEGYSFAESVSHLADKYQIDFPDDITVHSGARPESSGEQKMAEAHELLKKFYHHLLINTKEGQEALDYLLSRGFTKELINEFQIGYALDSWDFITKFLVKRGFSEAQMEKAGLLIRREDGSGYFDRFRNRVMFPIHDHHGAVVAFSGRALGSQQPKYMNSPETPLFHKSKLLYNFYKARLHIRKQERAVLFEGFADVYTAVSSDVKESIATMGTSLTDDHVKILRRNVEEIILCYDSDKAGYEATLKASELLQKKGCKVRVAMIPDGLDPDDYIKKFGGEKFKNDIIDASVTVMAFKMQYFRKGKNLSDEGDRLAYIKDVLKEISTLSGSLEQEVYVKQLASEFSLSQESLTEQLSVFSKQNKPADNSGETKTRRAHLTTKARQKRLRPAYENAERLLLAHMLRDRSVIKKVIDRVGFQFNIDEHRALAAYLYAFYEEGAELTPQHLMARVTDDHISQLLSDILMLQVNQELSEAELSDYVKKVLNQRNWSMIKEKEAERAEAERQKDFLRAASLAQEIVTLNRS”: “not soluble”; “MGNSSSLMLRDEEIEEIMSETEFNRNQIVRLYSRFLSLDKKGQGFLSRDDFLNVPELAVNPLGDRIVDAFFTLASSNGDNEEQQLNFRQFVRILAHFQPISRVKKNALNSRKDKLLFAFKMYDLNKNDYITREEFKVILNSMVGANITSDQLDKIADRTIEEADADRDGKISFDEFCRAMEKTDIEEKMSIRFLN”: “soluble”; “MGNVMLSKRKSGSMADDTGEHPVCFNCTLRVDQTIHVKCFECPLRICILCFQCGAESPPHRRGHNYELVKPTSNPEAMSWTHEDEFELLKAAHKFKMGNWGEIAESIGRGRKDGHNCKDYFEKHFVRGWIGQFSIKSSSWDRIKYGMYINQTLDSVLQKNCLESTERMLLIRDAVRASGESWDENDPKLAIKVQQVLEQYVQKVIDGDIETKYERPKFLTNQYETELSPDDCDPDNERDMKSKRSVKQEINTDDSDNDNSPGPSSSCRKKGPPSPKRRKTTRVMRESSSDSDDDKSQASDKDTYHGMERETEEEDPPSAFETAQEFDTEDEEEEKKPKRGTASSSKRRKRRRMWVSKKDRRLHEFRKKMNQEVKELRSAYPRLLHESGVSKSETRPKMRRSDELKILGYNNEREELECEWFNEAEQLISRLTISATEPQKDQRLDMENDIKFARLRHYVRLLGIRKAKRNTVLEHDKINEFMKFYQEACYAAAKRPVSQQEIMDSRTEKEKLLAMTQQFLTRDEYRSLRASIERIDNVVERIEVLQDLQKNGETTLKNAPVERKSKKKMRKIDCEQKKKIATEWSKFKKWHTEGWE”: “not soluble”.
As to “MGPAPRILELFYDVLSPYSWLGFEVLCRYQHLWNIKLQLRPTLIAGIMKDSGNQPPAMVPRKGQYIFKEIPLLKQFFQVPLNIPKDFFGETVKKGSINAMRFLTTVSMEQPEMLEKVSREIWMRVWSRDEDITEYQSILAAAVKAGMSTAQAQHFLEKISTQQVKNKLIENTDAACKYGAFGLPTTVAHVDGKTYMLFGSDRLELLAYLLGEKWMGPVPPTANARL”, the “soluble on expression in E. coli” value is “soluble”.
As for “MGPAPRVLELFYDVLSPYSWLGFEVLCRYQHLWNIKLKLRPALLAGIMKDSGNQPPAMVPHKGQYILKEIPLLKQLFQVPMSVPKDFFGEHVKKGTVNAMRFLTAVSMEQPEMLEKVSRELWMRIWSRDEDITESQNILSAAEKAGMATAQAQHLLNKISTELVKSKLRETTGAACKYGAFGLPTTVAHVDGKTYMLFGSDRMELLAYLLGEKWMGPVPPTLNARL”, the “soluble on expression in E. coli” value is listed as “soluble”.
The value for “MGPVRFAPSILTADLARLGEAIREAEAAGVDWIHLDVMDGVFVPNLTFGPLLVEAVRRVTSLPLDVHLMIVKPERYLEDFAQAGADHITVHFEATYHPHRAVQKVKELGKKAGLAVNPGTPLEAFEPLLPDLDLALLMSVNPGFGGQRYLPTATERLRRLKAMRDRLNPACLIVVDGGINRDTVAEARRAGADVAVAGSALFNDKPVAENLKALRLALLG” was “soluble”; that for “MGQFYCLHCDRYFSNVSVRDDHFKTKKHKKRVNMMMGQAPHSQLDADLAGGMGMPDNGPKLMSNLVFTELRKPETEDLPGMGQFNCLLCHRNFSNASVMDYHFKTKKHKKRVKKIERPAPHSQLDADLAGGMGMPDNGPKLMSA” was “not soluble”; that for “MGQIQYSEKYFDDTFEYRHVVLPPEVAKLLPKNRLLSENEWRAIGVQQSRGWVHYAVHRPEPHIMLFRRPLNYQQQQENQAQNMLVK” was “soluble”.
With “MGRDSPRDRRHRDRSPERRRRSRSRSRDRQTRRDTRRDDSPKIKREVKEEQFSDNDSPRRRRDDRGGRRDDRRDNRRDDRRDHRDDRGDRDRRDNFRRPDPVREDGKQYGLEKKEENWGKPEEPAKEKEKVNLGTSGALTEDTNTFRGVVIKYNEPPEAKKPNARWRLYPFKGEESLQVLYIHRQSAYLIGRDHKIADIPVDHPSCSKQHAVLQFRSMPFTRDDGTKARRIMPYIIDLGSGNGTFLNEKKIEPQRYIELQEKDMLKFGFSTREYVVMKEREITEEELAEGEDVKKEESD”, the “soluble on expression in E. coli” value is “not soluble”.
For the sequence “MGRLSEVFEVRERYVPQIGRPSYLLVSLPDAGLVGSISGEFLINYLNLREYGEIYSNKHLPPISHVVNGVAKSPIRLYHYDNFLLLHSWIAIPANSINHLANLVVSYAEKYGIQTIISITGVPVPNRLDLEKPTPYWVASSEDFAKELDSLNLMKKFVEGYVSGPYAPILFQSAKKLIRNLLIVVESFLDLPDPEAAAVALDILSKMLGFKVDTSSLLKEAEEIRERIKGLMQQTRQELPNYSGLRPSTYA”, the “soluble on expression in E. coli” value is reported as “not soluble”.
The value for “MGRMHNPGKGMAKSAIPYRRSVPSWQKMTAEEVQDQIVKMAKKGLRPSQIGVILRDSHGVGQVRRLAGNKIFRILKSKGMAPELPEDLYHLVKKAVAIRKHLERSRKDIDSKYRLILVESRIHRLARYYKTKRQLPPTWKYESGTAASLVS” was “soluble”; that for “MGRSADSFDRALWWGASDEPALAAPPLRGTTDTDVAIVGGGFTGLVTALHLAEAGLAPLVLEARHVGFGASGRNGGQVIPGLKYDPEALLQKFGPDRGRALIDLVGGAADGVFDLIERHRIRCAPRRAGWIQAAHSERALPAVLNRARQWQERGVGVSILSRDEIAARTGTSLYHGGWHDPRAGGLNPLAYARGLGRAAIAAGAHLFEESPALSLIRKGAGWEIRTPEGLVRANRVLIATNAYGEGLLPGLAQSILPVQSMLVATAPLPEDLRARLMPGGVVLSETRKLAFYMRQSDDGRLVLGGRGAVGPMEDGRLMAALEAGLARIFPEAARFGIAQRWSGQLALTLDGLPHLHAPEPGLQVLLGYNGRGIALATALGRMVANHLASGEEPVFPVTPIRPLAWHRLREPVMNAGIRWYWLKDRMGFASLEHHHHHH” was “not soluble”; that for “MGSDKIHHHHHHAACEKDPDMDKLDNDYLVYTNYDKKADFKQFSTYYIPDSVLVIGDKKDPEYWKGEAAEAIINAYKENLNSKGFTYTDNKDAADLGIQVSYVQSTYYFTDYGQPEWWWNYPGYWDAPYWGNWGGWYYPYVVNYSITTNSFLTEIMNLKAPEGEKQKLPVLWSSFLSGPASYSGKVNQTLVVRAINQSFAQSPYLTNK” was “not soluble”.
Next, “MGSDKIHHHHHHADTFSVLAHELMHFVYPSGTELLTPNVTKAANKCTQDEVKMMGDSDAVKPIDGWFSKKVTHEDLANIMGLRMVMKMAAKKSVNEEQLKNALETILGGLCIQGKPKNSILPHHHPFEISINTAVRQYPLFSSLYGCRPGDRMFAEAEKFCNPLGGEVNLEDYKIKNDTEDIGGFFNYIMDTANAFNFSIEN”: “not soluble”; “MGSDKIHHHHHHAFTTGENDPFIKSPTVAKLTNTPNGPLISCDLKALKDTVNFPLSQLTEELQIVKLDNRDEALIGGWIRTTVGEKYILVSNNKQTPYKLFDRTGKFITNIGSYGQGPNEYLNTYAEQLDEANNRIYILPWQSSKILVFDLKGNALDPIPLCLRVPKGKFRVNTAKSEVTVTVLPFPKWPAVVWTQDLKGKRKNFVAPGSLAMPQDFSNEVSMGNNTAAYDVMLMKIMPQPSVDTLYHYNAASNKLEGRFTVKYPSNDKIPWHAYYEIPKYFIGDVSFPIQIDESTFSGSKPAYYMVDKKTLHGNYVRLYNDFISTPSQTIYPSFNNGYYVTNMEPMALKEILEKEVNKKGLTADKKKKVQNLIKTLNDNDNNIVMFAKLKQ”: “not soluble”.
